The record followed here is the DeepSol protein solubility set.

This data set in a line: soluble on expression in E. coli; label from the status in PepcDB or PDB records.
For “MSVIRKEDGAGGKYMVELLKKHVFPKIASRAGEIALEDMEDSSDFCDDFAFTTDSYVVSPPIFRGGSIGSLSVCGTSNDLAVMGAKPEFMSLALVIQDGFPLGDFRRIMDDIRDSVELVNLSIITGDTKVVESNVGIIVNTAGIGRRSEELERNLEVLRELRDYPYRWVRDKGLKEGDAIIVSGSIAEHAAVIMAERMGFEVEFKSDVYPVWLFVREALRRGGVTAMKDPTRGGIAAALNEMAEKSGVGIKIFEERIPLKDEVRGLCELLGLDPLTMANEGKVVFGVHPEMADEVLKALHKAGQKEAEIIGYATKEFAEVVLETAVGTTRVVPQPISDPIPRVC”, the “soluble on expression in E. coli” value was “not soluble”.

In the case of “MSVLEVKGLTKVYQSKGSVATTALNDINFKIEEGEFVGIMGPSGSGKTTLLNLLATIDKQTSGHVLVNGEEINQMRAAKLAEFRRTHLGFIFQDFNLLDTLSIKENIILPLVMAKKSVNEIDAKVLEIAKFLNIEEILNKKVYEVSGGQQQRAAAARAIIHEPTLILADEPTGNLDSKSAKSLMSALQDLHEQKRVTIAMVTHDPVAASYCERILFIRDGEIFSEIHKGRTKQAFFQEILDVLAMLGGEYHELSPARA”, the “soluble on expression in E. coli” value is listed as “not soluble”. The same measure for “MSVSNTQFNPFGNHETNLKELKLQLEQVTSKSVKQIEDVKGLTVTLERLTEIAKNIPETAIQSLISEIVASFPKCVSVLGEKKPEDLRTASFISLLRRLNQFIQTIADRVTKPFDSDVLKEWAPIFVSLLTGKHSALKENGALLWKKTFGTVKNNLICPEDLRGILDSMPKRYAISVPQSTSSKTDGYFSDDEAMDGLPTSSAAGAGNNFKFPKIKTEVIESQSSFQFSQQPVADEVAEKLLKEQKLKAEETQSPKTSSTETSRRRTSRMALIDEDSCDFVAILTSPATRKNRLTDRQKEKLEEVSGPRTTINYMDEESQNGFVKTEQFKKALTAMNFEVEDESVSAPTSKNSENPEILPIDEIPTVHVESAKSDKTPEPVKKTNKRRRLFHDQPVSAFATESSRKPEIANNDLGEILEKLPEHASTKSPEQKRGRKDSAISCETSDDISDSMKSNDSRTIITQQEHAVEQKSRKKPGRPKNSRNRSETTRKSGRLSAIQNNACVTSESSMSNETGDVEKTDDKKESVQNIPEQEAAEKKEVDTTISDKRLSDTEEAIEENIVKSPPKTPRTPSILRVGKRMSTSSSPMTERKRNRVHFGEESLPVDVVSSPLTPRRRPLAEAAKNPFVEATVAASNSNLSDIQSSTNDSSFYPTLADCRDKIDRILPNLVTLCMKTVLDSAKRSLSAVGVKTVGDFASLSKSDIEKFTWIKGRVVGARNVLMQYEKTRNAERREEIVDGSEEKPMDVADAIPPEIEAVSPSSKDSQSVPMETKDNSPPANEVIAQELPKASPISNTPSVESTQPALNVQKTPEASQSPASPISSNTGSSTFTVDPTPVQKDLSVVLSRKNLAPIFCGGLKNFKKEQLCPQKQCEKAKDAEKSFVEDGRVLHRICVSLSNAHTQNHWPSENSSKLLSNINKASILFKNLVQTRGAGDWDDTDLENDDLSTAESDVATDVDVLVAVYKRFSRHHTSPMANNLPWRSVMECVNEAACLLESIFLTRAPNKGSM”: “not soluble”; for “MSYKFGKLAINKSELCLANVLQAGQSFRWIWDEKLNQYSTTMKIGQQEKYSVVILRQDEENEILEFVAVGDCGNQDALKTHLMKYFRLDVSLKHLFDNVWIPSDKAFAKLSPQGIRILAQEPWETLISFICSSNNNISRITRMCNSLCSNFGNLITTIDGVAYHSFPTSEELTSRATEAKLRELGFGYRAKYIIETARKLVNDKAEANITSDTTYLQSICKDAQYEDVREHLMSYNGVGPKVADCVCLMGLHMDGIVPVDVHVSRIAKRDYQISANKNHLKELRTKYNALPISRKKINLELDHIRLMLFKKWGSYAGWAQGVLFSKEIGGTSGSTTTGTIKKRKWDMIKETEAIVTKQMKLKVELSDLHIKEAKID”: “soluble”. Regarding “MTAAIAAPAYDAIVIGSGIGGLVTATQLAAKGAKVLVLERYLIPGGSAGWFEREGYRFDFGASIIFGFGDPGTTNLLTPPLADVGQALETIPDPVQIHYHLPNQLDLKVHRDYEAFLQELIAQFPQEAEGIRRFYDECWQVFNCLNAMPLLSLEEPKYLFNVFLQHPLACLGLVKYLPQNVGDIARRYIRNPDLLKFIDMECYCWSVVPATMTPMINAGMVFSDRHYGGINYPKGGVGRIAEKLVAGLEAKGSSIRYKARVTRILTEKGRAIGVELADGEKLYAKRIISNATRWNTFGELLPPQQEPAQEQRWQQRYRQSPSFLSLHLGVKADLLPAGTECHHILLENWDELEVEQGTIFVSIPTLLDPSLAPPDRHIIHTFTPSWLGEWDNLSPSEYRDRKAAAAAKLIQRLEAIFPGLSSAIDYQEVGTPRTHRRFLGRQNGTYGPIPRRKLAGLLGMPFNRTAIPGLYCVGDSTFPGQGLNAVAFSGYACGHRVAADLGLVLEHHHHHH”, the “soluble on expression in E. coli” value is recorded as “not soluble”.

Regarding “MTADLPDEIDETPLDGEYAHDSSPTLLYAIKQVELAIRSHMDALLRPMGITALQYTALTVLRRRDGLSSAELARNSFVTAQTMGEMLSALERRGLVTRRVDPANRRRMLTSLTADALDLLAEYDTSICGLEEQMLADMSVRQRDAFRGYLGRCRIALAETPAH”, the “soluble on expression in E. coli” value is given as “not soluble”. As to “MTAEVMSHVTAHFGKTLEECREESGLSVDILDEFKHFWSDDFDVVHRELGCAIICMSNKFSLMDDDVRMHHVNMDEYIKSFPNGQVLAEKMVKLIHNCEKQFDTETDDCTRVVKVAACFKEDSRKEGIAPEVAMVEAVIEKY”, the “soluble on expression in E. coli” value is “soluble”.

On to “MTAFRQRPLRLGHRGAPLKAKENTLESFRLALEAGLDGVELDVWPTRDGVFAVRHDPDTPLGPVFQVDYADLKAQEPDLPRLEEVLALKEAFPQAVFNVELKSFPGLGEEAARRLAALLRGREGVWVSSFDPLALLALRKAAPGLPLGFLMAEDHSALLPCLGVEAVHPHHALVTEEAVAGWRKRGLFVVAWTVNEEGEARRLLALGLDGLIGDRPEVLLPLGG”, for which the “soluble on expression in E. coli” value is reported as “soluble”. The value for “MTALESSYLNLAYPPRLDLGPQLTHDQLRSSMQSTMARHKGGPVWLFAYGSLIWRPECSAVERKRGRVHGYHRGLYLWSHEHRGTPELPGLVFGLDRGGSCSGFAYRLPEEQLDASLYALWQREMPYPSYRPHWLNCRLEDGSQVQALGFVLERHLPSYAGNLPDDVLNQVFESACGRYGTTRDYVEQTVQALRSHAMPDRNLEARLKRCKGADAHLEHHHHHH” was “not soluble”; that for “MTAWHRLPAAARALFGAKGGCTGSQRSYDDVLRVMYELTLRVVNPTYRNRTLANTSGKSAELVGLLVERLNMRRCLDTLRFVHVAGTKGKGTTASYTAALLEAYGLKVGLFTSPHVKDVRERIMVNNEVLPMDTFVHYFFQVVDCFVELAGADKEVTWDLPAPCSFFCLMFLVSLVAFAGESVDVAVVEVGIGGSRDPTNIIIPEASVITALGIDHTEILGDTVEEIALQKAGIMKPGVVCYAAPQGDHPSTRRVLKDYAEGVDSPLVFADDVAVPTDGWPCLSIGGEHAVENSRLALLAARSVMGIPLTQPLDDVERHVLQRTTVMGRSQVLPVGDGSKGTFYLDGAHTYESLRCATRWFVKESTKRTCDSKPRRVLLMYSSRQPERIVEAFRPFVDSFSKAVFVCALDPKGMREIWKNNSDAYTQDKATGLIRCWKTLCGAVPCFSRAAPFVSVEEVVEVVSAASSDDEDTSKPVQVFVTGSFFLVSDIVNLYDSQGS” was “not soluble”. The same measure for “MTCTTEIDILKWTVRYCSSLAAHLLTPTRLFKYEIQQQSDLRNATENKTEKYISDDVGHCRHTYMQIR”: “soluble”; for “MTDDKDVLRDVWFGRIPTCFTLYQDEITEREAEPYYLLLPRVSYLTLVTDKVKKHFQKVMRQEDVSEIWFEYEGTPLKWHYPIGLLFDLLASSSALPWNITVHFKSFPEKDLLHCPCKDAVEAHFMSCVKEADALKHKSQVINEMQRKDHKQLWMGLQNDLTSFGPSTGNSWNTLQKKMDFVISLLEYIRPQLNGLSFRSCSVLWPQMDSCIPLEIS”: “not soluble”; for “MTDESDALCATEKEIMHATHRALVNSGYAELSISRISDELDKAKSTIYHYYDSKDALLLRFLRFTVDRFEATINTSIGDNPKEDLNHIISTLLPCQLPEEKRQLHSVLVTLSPQALERAVFREQFTEIDTRLATIIEKTVRRGVDADVFRDVDPTHAAEHILATIKGTMYSRLTTNREAATAAAKASLFSYIDSHLIS”: “not soluble”. For the sequence “MTDFLEIRPLTKEAFTPFGDVIETTPSSMRHINGGQTERHHALSAPEAAGEGARIILNIFRGQPRVFPHKIDMMERHPLGSQSFSPLSGRPFLVVVAQDDGGRPARPQVFLARGDQGVNYRRNVWHYPLMPLQAVSDFLVADREGPGNNLEEYFFDEPFMIAEPSLAAALEHHHHHH”, the “soluble on expression in E. coli” value is listed as “soluble”.
